27 molecules from US20230002493A1 (ORIONIS BIOSCIENCES, published 2023) can be followed below.

Numbering of substitutions follows the chain as printed.

B1: 2LIG189_D33E (VHH)
VHH: QVQLQESGGGLVQAGGSLRLSCAASGKIFSGNEMGWYRQAPGKQRELVGIITSGGITDYADAVKGRFTISRDNAKNMMYLQMNSLKPEDTAVYYCNMRDRTIWWGQGTQVTVSS
B2: 2LIG189_D33Y (VHH)
VHH: B1 VHH with E33Y
B3: 2LIG189_M97F (VHH)
VHH: B1 VHH with E33D, M97F
B4: 2LIG189_N32V (VHH)
VHH: B1 VHH with N32V, E33D
B5: 2LIG189_D33L (VHH)
VHH: B1 VHH with E33L
B6: 2LIG189_N32A (VHH)
VHH: B1 VHH with N32A, E33D
B7: 2LIG189_M97Y (VHH)
VHH: B1 VHH with E33D, M97Y
B8: 2LIG189_N32G (VHH)
VHH: B1 VHH with N32G, E33D
B9: 2LIG189_N32Y (VHH)
VHH: B1 VHH with N32Y, E33D
B10: 2LIG189_D33Q (VHH)
VHH: B1 VHH with E33Q
B11: 2LIG189_N32S (VHH)
VHH: B1 VHH with N32S, E33D
B12: 2LIG189_D33F (VHH)
VHH: B1 VHH with E33F
B13: 2LIG189_N32E (VHH)
VHH: B1 VHH with N32E, E33D
B14: 2LIG189_N32T (VHH)
VHH: B1 VHH with N32T, E33D
B15: 2LIG189_N32L (VHH)
VHH: B1 VHH with N32L, E33D
B16: 2LIG189_N32I (VHH)
VHH: B1 VHH with N32I, E33D
B17: 2LIG189_N32F (VHH)
VHH: B1 VHH with N32F, E33D
B18: 2LIG189_OPT1 (VHH)
VHH: B1 VHH with Q1D, Q5V, A14P, E33D, A74S, K86R, Q109L
B19: 2LIG189_N32H (VHH)
VHH: B1 VHH with N32H, E33D
B20: 2LIG189_OPT2 (VHH)
VHH: B1 VHH with Q1D, Q5V, A14P, E33D, A74S, M77T, K86R, Q109L
B21: 2LIG189_M97H (VHH)
VHH: B1 VHH with E33D, M97H
B22: 2LIG189_M97E (VHH)
VHH: B1 VHH with E33D, M97E
B23: 2LIG189_D33V (VHH)
VHH: B1 VHH with E33V
B24: 2LIG189_D33I (VHH)
VHH: B1 VHH with E33I
B25: 2LIG189_M97R (VHH)
VHH: B1 VHH with E33D, M97R
B26: 2LIG189_D33R (VHH)
VHH: B1 VHH with E33R
B27: 2LIG189_M97Q (VHH)
VHH: B1 VHH with E33D, M97Q

The target of one assay is T1, recombinant PD-L1 extracellular domain fused to the mouse IgG1 Fc domain (SinoBiologicals) (human; mouse, UniProt Q9NZQ7 19-238).
T1 construct: extracellular domain; also called human PD-L1-mouse Fc; PD-L1-mouse Fc protein; not shown: mouse IgG1 Fc domain
T1 sequence (Q9NZQ7 19-238): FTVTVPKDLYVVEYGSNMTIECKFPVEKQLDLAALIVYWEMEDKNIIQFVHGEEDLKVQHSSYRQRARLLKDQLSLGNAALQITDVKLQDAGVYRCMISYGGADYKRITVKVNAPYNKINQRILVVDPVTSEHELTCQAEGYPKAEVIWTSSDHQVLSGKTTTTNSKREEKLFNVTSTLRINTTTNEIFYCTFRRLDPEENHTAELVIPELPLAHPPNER
Description: BLI (Octet Red 96); ratio of the printed KDs, variant over 2LIG189. How it is done:
(§1) Affinities of resulting variants were measured using the bio-layer interferometry technology on an Octet Red 96 instrument (ForteBio). In brief, recombinant PD-L1 extracellular domain fused to the mouse IgG1 Fc domain (SinoBiologicals) was immobilized on anti-murine IgG quantitation (AMQ) biosensors (ForteBio). Loaded sensors were incubated with a serial dilution of PD-L1 VHH variant, association and dissociation monitored and kinetic parameters were calculated using the Octet Data Analysis software v10 (ForteBio).
(§2) The aspartic acid at position 1 was included to avoid the risk of pyroglutamate formation. […] Resulting mutants were purified and affinities measured as described in Example 1.
Regarding B1, the “Ratio KD” value worked out at 52.1.

As to B2, the “Ratio KD” value came to 2.82.

In the case of B3, the “Ratio KD” value is 1.9.

On to B4, for which the “Ratio KD” value was determined as 3.82.

On to B5, for which the “Ratio KD” value came out at 20.7.

As for B6, the “Ratio KD” value turned out to be 3.41.

In the case of B7, the “Ratio KD” value was determined as 6.09.

As for B8, the “Ratio KD” value was found to be 24.

As for B9, the “Ratio KD” value was 2.58.

In the case of B10, the “Ratio KD” value was 31.6.

B11: the “Ratio KD” value was 2.27.

Regarding B12, the “Ratio KD” value was determined as 12.4.

In the case of B13, the “Ratio KD” value came out at 0.68.

Take B14: the “Ratio KD” value was 7.97.

Take B15: the “Ratio KD” value came to 2.04.

As to B16, the “Ratio KD” value was determined as 8.23.

With B17, the “Ratio KD” value stood at 0.7.

With B18, the “Ratio KD” value was found to be 8.75.

Turning to B19, the “Ratio KD” value is 2.28.

On to B20, for which the “Ratio KD” value was determined as 1.62.

Another assay deals with T1, recombinant PD-L1 extracellular domain …. Put plainly: BLI (Octet Red 96), PD-L1-mouse IgG1 Fc on AMQ biosensors, VHH dilution series. How it is done: as §1, §2
For B1, the Kd was determined as 41.2 nM, the koff amounted to 0.00883 s⁻¹ and the kon was determined as 214000 M⁻¹ s⁻¹.

As for B2, the Kd was 2.23 nM, the off-rate (koff) worked out at 0.00835 s⁻¹ and the kon was 3.75e+06 M⁻¹ s⁻¹.

As for B21, the binding result is recorded as “no binding”.

B22: the binding result is reported as “no binding”.

As to B23, the binding result was “no binding”.

Regarding B3, the Kd was 1.51 nM, the koff is 0.000208 s⁻¹ and the kon came out at 138000 M⁻¹ s⁻¹.

For B24, the binding result is recorded as “no binding”.

As to B4, the Kd came out at 3.02 nM, the koff came to 0.0009 s⁻¹ and the kon amounted to 298000 M⁻¹ s⁻¹.

B25: the binding result is “no binding”.

For the molecule B5, the Kd was 16.4 nM, the koff turned out to be 0.0342 s⁻¹ and the kon was 2.08e+06 M⁻¹ s⁻¹.

Regarding B6, the Kd was found to be 2.7 nM, the koff was 0.000733 s⁻¹ and the kon stood at 272000 M⁻¹ s⁻¹.

For B7, the Kd came out at 4.82 nM, the koff came to 0.00146 s⁻¹ and the kon amounted to 303000 M⁻¹ s⁻¹.

As to B8, the Kd turned out to be 19 nM, the koff amounted to 0.00228 s⁻¹ and the kon is 120000 M⁻¹ s⁻¹.

As for B26, the binding result is listed as “no binding”.

For the molecule B9, the Kd came to 2.04 nM, the koff came to 0.000629 s⁻¹ and the kon is 308000 M⁻¹ s⁻¹.

As to B10, the Kd was 25 nM, the koff came out at 0.0118 s⁻¹ and the kon came to 474000 M⁻¹ s⁻¹.

Consider B11, for which the Kd amounted to 1.8 nM, the koff came to 0.000292 s⁻¹ and the kon amounted to 163000 M⁻¹ s⁻¹.

Take B12: the Kd came out at 9.78 nM, the koff is 0.0107 s⁻¹ and the kon is 1.09e+06 M⁻¹ s⁻¹.

Turning to B13, the Kd was determined as 0.542 nM, the koff is 9.85e-05 s⁻¹ and the kon was 182000 M⁻¹ s⁻¹.

Regarding B14, the Kd came to 6.31 nM, the koff was determined as 0.00104 s⁻¹ and the kon was determined as 164000 M⁻¹ s⁻¹.

On to B15, for which the Kd amounted to 1.62 nM, the koff stood at 0.000195 s⁻¹ and the kon was found to be 121000 M⁻¹ s⁻¹.

Take B16: the Kd was determined as 6.51 nM, the dissociation rate constant (koff) amounted to 0.000872 s⁻¹ and the kon is 134000 M⁻¹ s⁻¹.

In the case of B17, the Kd was 0.55 nM, the koff amounted to 0.000176 s⁻¹ and the kon was found to be 320000 M⁻¹ s⁻¹.

On to B27, for which the binding result is “no binding”.

Turning to B18, the Kd worked out at 6.92 nM, the koff amounted to 0.000497 s⁻¹ and the kon came out at 71800 M⁻¹ s⁻¹.

Turning to B19, the equilibrium dissociation constant (Kd) turned out to be 1.81 nM, the dissociation rate constant (koff) amounted to 0.000446 s⁻¹ and the kon is 247000 M⁻¹ s⁻¹.

With B20, the Kd was found to be 1.28 nM, the koff turned out to be 0.000299 s⁻¹ and the kon was 234000 M⁻¹ s⁻¹.
